# According to patent publication US11702469B2, “Recombinant EGFL7, EGFL7 antibodies, and uses thereof” (Ohio State Innovation Foundation, priority 2017, dated 2023):
# Legend:
# [1] = system: AML cell lines; experiment: Differentiation (CD11b expression) in AML cell lines; type: cell-based, human; conditions: vs IgG-treated controls
# Protocol: FIG. 10. Induced differentiation in AML cell lines treated with anti-EGFL7. Differentiation analysis was evaluated by CD11b expression. CD11b is depicted as the ratio of the CD11b expression value in the @E7 treated samples to CD11b expression value of the IgG-treated controls. * indicates P<0.05, ** indicates P<0.01.
# For the evaluation of apoptosis, cells were stained with Annexin V and 7-AAD as previously described^16, 21 For the evaluation of cell proliferation, AML cell lines were incubated with BrdU, fixed, permeabilized and stained with APC-conjugated anti-BrdU antibody, according to the instructions of the manufacturer (BD Biosciences) and as previously described^16, 21 The proliferating fraction of the cells (i.e., the BrdU positive cells) was evaluated with flow cytometry (LSRII, BD Biosciences). For cell differentiation analysis, cells were stained with an anti-CD11B antibody (BD Biosciences) and analyzed by flow cytometry.
# [2] = system: CD34+ primary AML patient cells; experiment: Cell-trace violet (CTV) membrane-labeling retention, quiescence; type: cell-based, human; conditions: vs unstimulated / IgG1 controls
# From the text: FIG. 17A-17C. EGFL7 in LSCs. FIG. 17A. qRT-PCR of EGFL7 in LSC-enriched and non-LSC enriched subpopulations of primary AML patient samples normalized to B-ACTIN. Number of quiescent (CTV^MAX) AML cells treated with FIG. 17B. rEGFL7 or control (vs Unstim). FIG. 17C. anti-EGFL7 (Parsatuzumab) antibody or IgG1 control (vs Unstim). *P<0.05.
# A morphologically homogenous and functionally static blast population present in the BM and blood of individual AML patients has now evolved into the current perspective of multiple dynamic and heterogeneous cell subpopulations which includes the bulk blast population and the relatively rare leukemia initiating cells (LICs) also referred to as LSCs. Thus, targeting both LSCs and bulk blasts is necessary for complete eradication of the disease. To determine whether EGFL7 has a role in LCS, the LSC-enriched population was first determined within each AML patient sample using long-term colony initiating cell (LTC-IC) assays. […] Next, to determine whether EGFL7 has a role in LSC function, CD34+ cells were isolated and stimulated them with rEGFL7 protein and performed LTC-IC assays. […] To determine whether EGFL7 regulates LSC functions such as cellular quiescence, membrane-labeling retention experiments were performed with cell-trace violet dye (CTV). […]
# [3] = system: human AML blasts; experiment: CFU assay, blasts of AML patients; type: cell-based
# Protocol: FIG. 4A-4E. EGFL7 stimulates the proliferation of human and mouse acute myeloid leukemia (AML cells). Bone marrow cells from wild-type (WT) mice (FIG. 4A), and Mll^PTD/WTFlt3^ITD/WT mice (FIG. 4B), were treated without (Unstim) or with 0.1, 0.25, or 0.5 μM recombinant mouse Egfl7 (rEgfl7) in IMDM medium+2% bovine serum albumin (BSA) for 24, 48, 72 and 96 hours. At the indicated time points, the number of viable cells was determined by trypan blue dye exclusion assay. Each condition was repeated in triplicate. NS indicates not significant, * indicates P<0.05, ** indicates P<0.01. (FIG. 4C). […] The colonies with more than 50 cells were enumerated using a light microscope. Each condition for each patient (n=4) was plated in triplicate, ** indicates P<0.01, *** indicates P<0.001. (FIG. 4D) Blasts from AML patients (n=4) were cultured in SFEM+2% BSA in the absence or presence of 0.25 μM rEGFL7 for 20 min. Total proteins were extracted for immunoblotting of phosphorylated AKT-S473 (pAKT-S473), total AKT and GAPDH. (FIG. 4E) AML blasts from Mll^PTD/WTFlt3^ITD/WT mice (n=3) were cultured in IMDM medium+2% BSA in the absence or presence of […] recombinant rEgfl7 for 20 min. […]
# FIG. 5. […] The number of colonies with more than 50 cells was counted under a light microscope. […]
# Colonies with more than 50 cells were counted using a light microscope. […]
molecule,measurement,setting,value
"Parsatuzumab: Anti-human EGFL7 therapeutic antibody (Parsatuzumab) obtained from Creative Biolabs; blocking monoclonal antibody (antibody, chains of the INN, looked up, V domains shown) VH: EVQLVESGGGLVQPGGSLRLSCAASGYTFIDYYMNWVRQAPGKGLEWVGDINLDNSGTHYNQKFKGRFTISRDKSKNTAYLQMNSLRAEDTAVYYCAREGVYHDYDDYAMDYWGQGTLVTVSS VL: DIQMTQSPSSLSASVGDRVTITCRTSQSLVHINAITYLHWYQQKPGKAPKLLIYRVSNRFSGVPSRFSGSGSGTDFTLTISSLQPEDFATYYCGQSTHVPLTFGQGTKVEIK",differentiation (CD11b expression),[1],increased differentiation
same,number of quiescent cells (CTV^MAX),[2],decrease in the number of quiescent AML cells
same,cell growth (numbers of formed colonies in CFU assays),"[3]; 2, 10, 50, or 250 μg/ml for 2 h, then 10 days, vs normal IgG",significant decreases in cell growth
same,blast growth (number of CFUs),"[3]; increasing concentrations for 4 hours, then 10 days in methylcellulose, n=4, vs IGg1 control",dose dependent decrease in blast growth
